Measured values as given in patent US20190284243A1 (UNIVERSITY OF COPENHAGEN, published 2019).
Ends that are not written are not given here. PEGA1900 = not defined here

B3: hexapeptide HRMVRG (SEQ ID NO: 4) (peptide)
peptide: HRMVRG-PEGA1900
modifications: reading uncertain
notes: also called HRMVRG-PEGA1900; hexapeptide partner

Tests used:
[1] = biological target: T1, β-body (2) TTYTYPGDTFTI (SEQ ID NO: 58) (with a fluorescent probe (2-F*) or on beads, by assay); test: fluorescent β-body on beads modified with (2)
T1 construct: the assay field says which was which; also called 2-F*; bead-(2)
T1 peptide: TTYTYPGDTFTI

[2] = biological target: B3; test: pairs of beads of two libraries adhering to each other, identified by MSMS
Experimental: This example illustrates how to identify a β-body recognizing a linear peptide. A split-mix library of 21.000.000 β-bodies according to the invention were prepared by combinatorial synthesis as described in Example 4 above. This was performed on 100 μm beads with no fluorescence. A second split mix library of 470.000 hexapeptides were prepared in a similar manner except that this library was prepared on larger 400 μm beads with fluorescence label attached to some functional groups. The two libraries were mixed and pairs of beads adhering to each other in pairs with one large fluorescent and one small non-fluorescent bead were collected and the two peptides were identified by MSMS. […] EGFP is an abbreviation of Enhanced Green Fluorescent Protein.

[3] = biological target: T2, Enhanced Green Fluorescent Protein (UniProt P42212 1-238 = GFP); test: green fluorescence on HRMVRG-PEGA1900 beads
T2 construct: treated as one molecule; also called EGFP; eGFP

B1: β-body (3) TFTFTFPGLTRTHT (SEQ ID NO: 59) (designed binder)
peptide: TFTFTFPGLTRTHT
modifications: also: with a fluorescent probe, place not given here
notes: The text calls it a modified version of (2); also called fluorescent-(3)
[1]
  fold reduction of binding against fluorescent-(1): 7 fold

B2: β-body KTGTQNLTGPGRTHTQTATEG (SEQ ID NO: 3) (peptide)
peptide: KTGTQNLTGPGRTHTQTATEG
notes: Found from a one-bead-one-compound library K(TX)4PG(XT)4EG
[2]
  binding result: binds

## B3
[3]
  binding result: no binding
